Data as given in the nanobody polyreactivity screen of Harvey et al. (2022).

Assay: yeast display, Sf9 membrane polyspecificity reagent, FACS + sequencing; frameworks hold sequencing errors
In short: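 A synthetic nanobody library was expressed on Saccharomyces cerevisiae BJ5465 by galactose induction for 36–48 hours. The library was stained for 1 hour at 4 °C with 10% biotinylated, detergent-solubilized Sf9 membrane reagent and enriched with streptavidin microbeads before FACS. Low and high (top ~1%) gates were set on anti-HA fluorescence for expression and streptavidin fluorescence for reagent binding, and each polyreactivity label reflects the gate of origin.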

Row | Sequence | polyreactivity (PSR sort gate)
1 | QVQLVESGGGLVQAGCSLRLICAASALTFYHKAMGWYRPAPVKERELVAPISSSGDSTYSADSVKGRFTISHDNGKNTVYLQMNSLKPEYTAVYYCAADLGYYNARWYEYWGQGTQVTVSS | high polyreactivity
2 | QVQLVESGGGLVQAGCSLRLRCAASGYTFYDYAMGWYRPAPGKERELVAASSSSGGSTYYADSVKGRFTISRDNAKNTGYLQMNSVKPEDTALYYCAVRARRWRYNYWGQGTQVTVSS | high polyreactivity
3 | QVQLVESGGGLVQAGCSLRLSCAASGFIFTSYAMGWYRQAPGKERDLVAAITRSGGRTYYADSVKGRFTISLDNAKITVYLQMNSLKPEDTAVYYCAAVTFYQSPARGYWGQGTQVTVSS | high polyreactivity
4 | QVQLVESGGGLVQAGCSLRLSCAASGFTFAGNAMGWYRQAPGKERELVAAISRRGGSTYYADSVKGRFTISRDNAKNTVYLKMNSLKPEDNAVYYCAAVYRYDYDYWGQGNQVTVSS | high polyreactivity
5 | QVQLVESGGGLVQAGCSLRLSCAASGFTYARYTMGWYRQAPGKERELVAAISSRGSSTYYADSVKGRFTISRDNAKNSVYLQMNCLKPEDTAVYYCAAPPRYGYDYWGQGTQVTVSS | high polyreactivity
6 | QVQLVESGGGLVQAGCSLRLSCAASGIIFGYYAMGWYRQAPVKERELVAAISSRGSRTYYSDSLKGRFTISRDNAKNTVYLQMNSLIPEDTAVYYCAVRGKFDYWGQGTQVTVSS | high polyreactivity
7 | QVQLVESGGGLVQAGCSLRLSCAASGITVYDYDMGWYRQAPGKERELVAAITWNGGSTYYADSVKGRFTISRDNAKNTVYLQMNSLKPEDTAVYYCAAESYYIYDYWGQGTQVTVSS | high polyreactivity
8 | QVQLVESGGGLVQAGCSLRLSCAASGLIFLPYAMGWYIQAPGKERELVAAINFSTGSTHYADSVKGRFTISRDNAKNTVFLQMNSLKPEDTAVYYCAVYTSQIYGYWGQGTQVNVSS | high polyreactivity
9 | QVQLVESGGGLVQAGCSLRLSCAASGLTFAKYAMGWYRHAPGKEWELVAAISRSGGSTYYADSVKGRFTISRDNAKNTVYLQMNSLKPEDTAVYYCAKSSGTLWITKYDYWGQGTQVTVSS | low polyreactivity
10 | QVQLVESGGGLVQAGCSLRLSCAASGLTFHWYTMGWYRQAPGKERELVATINSGGSTDYADSVKGRFTISRDNAKNTVYLQMNSLKPEDTAVYYCNAEYGYSGVGDDYWGQGTQVTVSS | low polyreactivity
11 | QVQLVESGGGLVQAGCSLRLSCAASGRIFRLNAMGWYRQAPGKERELVAAISSSGGSTYYADSVKGRFTISRDNAKNTVYLQMNSLKPEDTAVSYCAKYPVGGYDYWGQGPQVTVSS | low polyreactivity
12 | QVQLVESGGGLVQAGCSLRLSCAASGRIFYTYAMGWYRQAPAKEREFVAGIRWSGSSTYYADSVMGRFRISRDNAKYTVYFQMLSMKPEDTAVYYCAKRYVWGDKRYWQGYDYWGQGNQVTVSS | high polyreactivity
13 | QVQLVESGGGLVQAGCSLRLSCAASGRTFPYYAMGWYRQAPGKERELVARIRSDGSTNYADSVKGRFTISRDNAKNTVYLQMNSLKPEDTAVYYCTADVGFEPPWYDWSWDNEYWGQGTQVSVSS | low polyreactivity
14 | QVQLVESGGGLVQAGCSLRLSCAASGRTFVHYTMGWYRQAPGKERELVATISTSGGSTSYADSVKGRFTISRDNAKNTVYLQMNSLKPEDTAVYYCAARWYFPDRVKYDYWGQGTQVTVSS | low polyreactivity
15 | QVQLVESGGGLVQAGCSLRLSCAASGRTFVWYEMGWYRQATGKERELVAAINKRGTSTYYADSVKGRFTISRDNAKNTVYLQMNSLNPEVTAVYYCAVEYIYWFHSRSSYIYDYWGQGTQVTVSS | low polyreactivity
16 | QVQLVESGGGLVQAGCSLRLSCAASGRTIGYYAMGLYRPAPGKERELVAAISTRGGRTSYADSVKGRFTISRDNAKYTVYFQMNSLKPEDTAVYYCAADGVRVHKDPTGHYYWGQGTQVTVSS | high polyreactivity
17 | QVQLVESGGGLVQAGCSLRLSCAASGSIFAAYPMGWYRQAPGKERELVAAISRSCGSTYYADSVKGRFTISRDNAKNTVYLQMNSLKPEDTAVYYCAADTYGYRHDNYDYWGQGTQVTVSS | low polyreactivity
18 | QVQLVESGGGLVQAGCSLRLSCAASGSIFPCNAMGWYRQAPGKERELVAAISRGCSTNYADSVKGRFTISRDNAKNTDYLQMNSLKPEDTSVFDCAVYYYSYHGGRGYDYWGQGTQVTVSS | high polyreactivity
19 | QVQLVESGGGLVQAGCSLRLSCAASGSIFRVYAMGWYRQAPGKEREFVAAITRSGGSTYYADSVKGRFTISRDNAKNTVYLQMNSLKPEDTAVYYCNAVYYSWAQSARFDYWGQGTQVTVSS | low polyreactivity
20 | QVQLVESGGGLVQAGCSLRLSCAASGSIFSAYSMGWYRPAPGKEREFVAAITRRGGNTYYADSVKGRFTISRDNAKNTVYLQMKSLKPEDTAVYYCAASYNGLWHGDYDYWGQGTQVTVSS | low polyreactivity
21 | QVQLVESGGGLVQAGCSLRLSCAASGSIFYSNAMGWYRQAPGKERELVAAITRRGGSTYYADSVKGRFTISRDNAKNTVYLQMNSLKPEDTAVYYCYADGSARTPYYYRWYRYGYWGQGTQVSVSS | high polyreactivity
22 | QVQLVESGGGLVQAGCSLRLSCAASGSTFFPNGMGWYRQAPGKERELVAAITQDGGSTYYADSVKGRFTISRDNAKNTVYLQMNSLKPEDTAVYYCAASAGPYYEYGYWGQGTQVTVSS | low polyreactivity

Row | Sequence | polyreactivity (PSR sort gate)
23 | QVQLVESGGGLVQAGCSLRLSCAASGSTFFRYAMGWYRQAPGKERELVAAITSGGNTYYADSVKGRFTISRDNAKITVYLQMNSMKPEDTAVYYCAADVYHWIHEYDYWGQGTQVSVSS | low polyreactivity
24 | QVQLVESGGGLVQAGCSLRLSCAASGSTFRKYAMGWYRQAPGKEREFVAAITWSTGTTYYADSVKGRFTISRDNAKNTVYLQMNSLKPEDTAVYYFAADSQPPHELYESIEHESWGQGTQVTVSS | low polyreactivity
25 | QVQLVESGGGLVQAGCSLRLSCAASGSTFRSYAMGWYRQAPGKERELVASISGDGDSTYYADSVKGRFTISRDNAKNTVYLQMNSLKPEDTAVYYCNKGLHNGEVDYDYWGQGTQVTVSS | low polyreactivity
26 | QVQLVESGGGLVQAGCSLRLSCAASGSTFWFNGMGWYRQAPGKERELVAVITFSTGSTSYADSVKGRFTISRDDAKNTVYLQMNSLKAEDTAGYYCAAEYVIYYCFEWLDLDYWGQGTQVTVSS | high polyreactivity
27 | QVQLVESGGGLVQAGCSLRLSCAASGYMGWYRQAPGKERELVATISGSGGSTYYADSVKGRFTISRDNAKNTVYLQMNSLKPEDTAVYYCTTEIWGVNRSGYDYWGQGTQVTVSS | low polyreactivity
28 | QVQLVESGGGLVQAGCSLRLSCAASGYTSRRNVMGWYRQAPGNERELVAAINSAGSTTYADSVKGRFTISRVNAKNTVYLQMNSLKPEDTAVYYCAASVYTYNYDLHKSYYLGQGTQVTVSS | high polyreactivity
29 | QVQLVESGGGLVQAGCSLRLSCASSGRTFSEYAMGWYRQAPGKERELVAAISKGGGSTYYADSVKGRCTISRDNAKNTVYLQMNSLKPEDNAVYYCAKSSHAREYYYWGQGTQVTVSS | low polyreactivity
30 | QVQLVESGGGLVQAGCSLRLSCASSGSTFEYYAKGRYRQAPGKERELGAAINGIGGSTTYADSVKGRFTISRDNAKNNVYFQMNSLKPEDTAVYYCNADVARSNSQASAYDYWGQGTQVTVSS | low polyreactivity
31 | QVQLVESGGGLVQAGCSLRLSCDASGSIYKYYSMGWYRQAPGKERELVAAISKNGGSTYYADSVKGRFTISRDNAKYTVYLQMNSLKPEDTAVYYCAAEEGYRWVRYNYWGQGTQVTVSS | high polyreactivity
32 | QVQLVESGGGLVQAGCSLRLSSAASGSIFWVNAMGWYRQAPGQERELVAAITWSAGSTYYADSVKGRFTISRDNAKYTVYVEMNSLKPEDTAVYYCAAGGAWYYWTLDYWGLGTQVTVSS | low polyreactivity
33 | QVQLVESGGGLVQAGCSLRLSSAASGSTFRANAMGWYRQAPGKERELVAAITSGGSTNYADSVKGRFTISRDNAKNTVYLQMNRRKPEDTAVYYCADESYQEHSFYVYYGYDYWGQGTQVTVSS | low polyreactivity
34 | QVQLVESGGGLVQAGCSLRLSWAASGRTFFSNAMGWYRQAPGKERELVAAISNGDNTYYADSVKGRFTISRDNAKNTVYLQMNSLKPEDTAVYYCAKDYRWVWRKYGYWGQGTQVTVSS | low polyreactivity
35 | QVQLVESGGGLVQAGGCLRLSCAASGFTFKTYAMGWYRQAPGKEREFVAAITTRVGSTYYADSVKGRFSISRDNAKNTVYLQMISLKPEDTAVYYCNYNFNYPYYRYGYWGQGTQVTVSS | high polyreactivity
36 | QVQLVESGGGLVQAGGCLRLSCAASGSSFGYNGMGWYSQAPGKEREVVAAISSGGNTYYGDSVNGRFTISRDNAKNTVYLQMNSLKPEDTAVYYCNADYVASGYDFDEGYWGQGTQVTVST | low polyreactivity
37 | QVQLVESGGGLVQAGGCLRLSCDASGITFDYYAMGWYRQAPVKESELVAAITNDGRTYNADSVKGRFTISLDNAKNTVYLQMNSLKPEDTADYYCARLTYYVNGRYDYWGQGTQVTVSS | low polyreactivity
38 | QVQLVESGGGLVQAGGGLRLSCAACGSIFVYYVMGWYRQAPGKERELVAAINSDGDGTYYADSVKGRFTISRDNAKNTVYLQMNSLKPEDTAVYYCNALNPKSYDYWGQGTQVTVSS | low polyreactivity
39 | QVQLVESGGGLVQAGGGLRLSCAASGRIFFYAMGWYRQAPGKQRELVAAISWSGGSTYYADSVKGRFTISRDNAKNTVYLQMNSLKPEDTAVYYCAADYEGWGYDYRGDYWGQGTQLTVSS | low polyreactivity
40 | QVQLVESGGGLVQAGGGLRLSCAASGRTFYIYAMGWYRQAPGKERELVAAISWRGGSTYYADSVKGRFTISRDNAKNTGYLQMNSLKPEDTAVYYCAKVYARTVGWFNYWGQGTQVTVSS | high polyreactivity
41 | QVQLVESGGGLVQAGGGLRLSCAASGSILPEYAMGWYRQAPGKERELVAAITTSGGSTYYADSVKGRFTISRDNAKNTVYLQMNSLKPEDTAVYYCAVEYLVYLDYTYDYWGQGTQVTVSS | low polyreactivity
42 | QVQLVESGGGLVQAGGGLRLSCAASGTFKRNAMGWYRQAPGKERELVATITRTGSTTYADSVKGRFTISRDNAKNTVYLQMNSLKPEDTAVYYCNRVTKEYGLRQYYYWGQGTQVTVSS | low polyreactivity
43 | QVQLVESGGGLVQAGGGLRLSCAASGTFKRNAMGWYRQAPGKERELVATITRTGSTTYADSVKGRFTISRDNAMNTVYLQMYSQKPEDTAVYYCAAGYPPEDPEDYWGQGTQVTVSS | low polyreactivity
